Reference: paper PMC3005596 (Journal of molecular biology, 2010)
Like-named read-outs stand apart in the source and are kept apart here.

Columns and labels:
human Dicer = human Dicer (human, UniProt Q9UPY3 1-1922); assay: SEC
TRBP [1] = molecular target: T1, TRBP (human, UniProt Q15633 1-366); assay: filter binding
T1 sequence: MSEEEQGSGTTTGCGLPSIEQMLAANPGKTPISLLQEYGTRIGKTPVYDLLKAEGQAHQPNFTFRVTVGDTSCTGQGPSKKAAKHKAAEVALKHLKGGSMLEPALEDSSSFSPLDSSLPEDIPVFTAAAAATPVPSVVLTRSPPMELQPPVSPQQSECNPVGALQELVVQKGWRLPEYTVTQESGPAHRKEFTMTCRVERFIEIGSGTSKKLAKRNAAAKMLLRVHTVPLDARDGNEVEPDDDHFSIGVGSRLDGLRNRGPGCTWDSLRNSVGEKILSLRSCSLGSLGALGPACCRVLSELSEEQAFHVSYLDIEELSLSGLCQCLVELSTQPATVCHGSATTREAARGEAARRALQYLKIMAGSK

TRBPpm (phospho-mimic) [2] = molecular target: T2, TRBPpm (phospho-mimic) (human, UniProt Q15633 1-366, S142D;S152D;S283D;S286D); assay: filter binding
T2 sequence: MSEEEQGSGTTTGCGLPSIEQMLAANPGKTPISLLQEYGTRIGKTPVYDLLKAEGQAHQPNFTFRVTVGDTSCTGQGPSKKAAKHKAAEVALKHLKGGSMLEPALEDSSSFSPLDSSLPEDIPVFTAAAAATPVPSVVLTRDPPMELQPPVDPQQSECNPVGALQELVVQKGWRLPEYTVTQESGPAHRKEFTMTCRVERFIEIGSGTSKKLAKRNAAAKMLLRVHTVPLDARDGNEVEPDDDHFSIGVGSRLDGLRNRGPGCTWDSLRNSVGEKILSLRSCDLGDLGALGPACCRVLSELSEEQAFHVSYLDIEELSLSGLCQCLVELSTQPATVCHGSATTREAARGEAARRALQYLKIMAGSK

Dicer = Dicer (human, UniProt Q9UPY3 1-1922); assay: filter binding
Chain of Dicer (Q9UPY3 whole entry): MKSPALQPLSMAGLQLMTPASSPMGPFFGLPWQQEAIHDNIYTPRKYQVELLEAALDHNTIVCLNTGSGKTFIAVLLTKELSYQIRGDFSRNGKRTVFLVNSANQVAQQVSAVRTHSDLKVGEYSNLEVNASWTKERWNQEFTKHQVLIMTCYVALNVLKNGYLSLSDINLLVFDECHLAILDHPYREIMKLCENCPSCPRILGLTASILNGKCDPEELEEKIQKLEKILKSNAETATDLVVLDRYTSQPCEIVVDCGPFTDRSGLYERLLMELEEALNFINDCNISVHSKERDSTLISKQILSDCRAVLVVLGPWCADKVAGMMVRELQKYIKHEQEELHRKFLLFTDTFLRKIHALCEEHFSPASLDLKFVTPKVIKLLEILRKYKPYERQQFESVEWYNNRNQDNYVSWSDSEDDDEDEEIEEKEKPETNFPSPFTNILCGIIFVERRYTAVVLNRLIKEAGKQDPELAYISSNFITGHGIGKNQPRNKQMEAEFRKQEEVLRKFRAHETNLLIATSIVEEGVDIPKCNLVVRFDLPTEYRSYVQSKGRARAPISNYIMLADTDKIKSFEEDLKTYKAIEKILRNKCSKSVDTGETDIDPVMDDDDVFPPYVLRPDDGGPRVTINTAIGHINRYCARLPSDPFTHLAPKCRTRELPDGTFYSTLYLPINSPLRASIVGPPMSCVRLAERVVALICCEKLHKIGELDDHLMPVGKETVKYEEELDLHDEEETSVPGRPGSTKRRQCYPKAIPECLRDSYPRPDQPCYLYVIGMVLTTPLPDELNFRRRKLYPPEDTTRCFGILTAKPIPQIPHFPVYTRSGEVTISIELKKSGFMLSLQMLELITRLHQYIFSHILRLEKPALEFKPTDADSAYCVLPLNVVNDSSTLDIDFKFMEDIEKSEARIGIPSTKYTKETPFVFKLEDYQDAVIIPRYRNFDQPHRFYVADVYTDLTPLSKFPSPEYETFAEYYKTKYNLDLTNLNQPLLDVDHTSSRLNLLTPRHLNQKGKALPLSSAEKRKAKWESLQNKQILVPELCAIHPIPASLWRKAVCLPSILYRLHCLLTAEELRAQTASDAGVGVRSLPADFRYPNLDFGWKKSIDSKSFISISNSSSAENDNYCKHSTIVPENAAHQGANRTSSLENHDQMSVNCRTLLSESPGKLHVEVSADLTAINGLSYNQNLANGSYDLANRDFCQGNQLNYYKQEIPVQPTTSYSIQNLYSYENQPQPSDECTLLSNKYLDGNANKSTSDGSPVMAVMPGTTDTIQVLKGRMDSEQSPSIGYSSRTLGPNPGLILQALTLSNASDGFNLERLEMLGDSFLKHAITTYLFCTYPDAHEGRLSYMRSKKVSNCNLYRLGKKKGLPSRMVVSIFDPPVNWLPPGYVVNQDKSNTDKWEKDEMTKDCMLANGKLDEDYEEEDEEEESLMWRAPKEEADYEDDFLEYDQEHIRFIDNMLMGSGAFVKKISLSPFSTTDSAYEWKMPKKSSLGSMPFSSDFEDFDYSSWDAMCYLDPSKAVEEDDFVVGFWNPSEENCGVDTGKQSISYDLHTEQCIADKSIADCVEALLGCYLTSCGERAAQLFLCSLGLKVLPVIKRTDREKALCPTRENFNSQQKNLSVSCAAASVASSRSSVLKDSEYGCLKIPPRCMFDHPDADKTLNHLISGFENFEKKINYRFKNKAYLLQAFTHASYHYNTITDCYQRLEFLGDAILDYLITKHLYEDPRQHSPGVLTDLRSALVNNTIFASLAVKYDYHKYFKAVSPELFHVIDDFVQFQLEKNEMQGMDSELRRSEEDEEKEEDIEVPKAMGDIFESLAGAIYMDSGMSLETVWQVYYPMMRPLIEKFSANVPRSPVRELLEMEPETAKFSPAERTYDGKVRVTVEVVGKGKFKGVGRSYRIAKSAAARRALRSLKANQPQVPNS

Dicer;TRBPRBD3 = Dicer;TRBPRBD3 (human;human, UniProt Q9UPY3;Q15633 1-1922;293-366, |); assay: filter binding
Chain of Dicer;TRBPRBD3 (Q9UPY3 whole entry, chain 1 of 2, one chain of several): as the sequence (Q9UPY3 whole entry) above

Dicer;TRBP = Dicer;TRBP (human;human, UniProt Q9UPY3;Q15633 1-1922;1-366, |); assay: filter binding
Chain of Dicer;TRBP (Q9UPY3 whole entry, one chain of several): as the sequence (Q9UPY3 whole entry) above

[3] = molecular target: Dicer;TRBPpm (phospho-mimic) (human;human, UniProt Q9UPY3;Q15633 1-1922;1-366, |S142D;S152D;S283D;S286D); assay: filter binding
Chain of Dicer;TRBPpm (phospho-mimic) (Q9UPY3 whole entry, chain 1 of 2, one chain of several): as the sequence (Q9UPY3 whole entry) above

TRBP [4] = molecular target: T1, TRBP; assay: filter binding; remark: listed apart in the source
TRBPpm (phospho-mimic) [5] = molecular target: T2, TRBPpm (phospho-mimic); assay: filter binding; remark: listed apart in the source

Chain of human Dicer (Q9UPY3 whole entry): as above

B1: HIV trans-activating response (TAR) RNA binding protein (TRBP) (natural protein, human, UniProt Q15633 1-366, looked up)
chain: MSEEEQGSGTTTGCGLPSIEQMLAANPGKTPISLLQEYGTRIGKTPVYDLLKAEGQAHQPNFTFRVTVGDTSCTGQGPSKKAAKHKAAEVALKHLKGGSMLEPALEDSSSFSPLDSSLPEDIPVFTAAAAATPVPSVVLTRSPPMELQPPVSPQQSECNPVGALQELVVQKGWRLPEYTVTQESGPAHRKEFTMTCRVERFIEIGSGTSKKLAKRNAAAKMLLRVHTVPLDARDGNEVEPDDDHFSIGVGSRLDGLRNRGPGCTWDSLRNSVGEKILSLRSCSLGSLGALGPACCRVLSELSEEQAFHVSYLDIEELSLSGLCQCLVELSTQPATVCHGSATTREAARGEAARRALQYLKIMAGSK
Human Dicer
  binding result: binds

B2: phospho-mimic mutant of TRBP (TRBPpm) (natural protein, human, UniProt Q15633 1-366, looked up)
chain: MSEEEQGSGTTTGCGLPSIEQMLAANPGKTPISLLQEYGTRIGKTPVYDLLKAEGQAHQPNFTFRVTVGDTSCTGQGPSKKAAKHKAAEVALKHLKGGSMLEPALEDSSSFSPLDSSLPEDIPVFTAAAAATPVPSVVLTRDPPMELQPPVDPQQSECNPVGALQELVVQKGWRLPEYTVTQESGPAHRKEFTMTCRVERFIEIGSGTSKKLAKRNAAAKMLLRVHTVPLDARDGNEVEPDDDHFSIGVGSRLDGLRNRGPGCTWDSLRNSVGEKILSLRSCDLGDLGALGPACCRVLSELSEEQAFHVSYLDIEELSLSGLCQCLVELSTQPATVCHGSATTREAARGEAARRALQYLKIMAGSK
Human Dicer
  binding result: binds

B3: pre-let-7a (structured_RNA)
RNA: UGAGGUAGUAGGUUGUAUAGUUUUAGGGUCACACCCACCACUGGGAGAUAACUAUACAAUCUACUGUCUUACC
TRBP [1]
  Kd: 1.3 ± 0.2 nM
TRBPpm (phospho-mimic) [2]
  Kd: 2.9 ± 0.6 nM
Dicer
  Kd: 1.8 ± 0.4 nM
Dicer;TRBPRBD3
  Kd: 1.3 ± 0.1 nM
Dicer;TRBP
  Kd: < 0.05 nM
[3]
  Kd: < 0.04 nM

B4: 35-bp duplex (pre-siRNA) (dsRNA)
RNA 1: UGAGGUAGUAGGUUGUAUAGUUUGAAAGUUCACGAUU
RNA 2: UCGUGAACUUUCAAACUAUACAACCUACUACCUCAAA
Dicer
  Kd: 3.4 ± 0.5 nM
Dicer;TRBPRBD3
  Kd: 3 ± 0.4 nM
TRBP [4]
  Kd: < 0.09 nM
TRBPpm (phospho-mimic) [5]
  Kd: < 0.1 nM
Dicer;TRBP
  Kd: < 0.051 nM
